Test results published in patent publication US20220411487A1 (Regeneron, published 2022).
Positions count from the first letter of the chain named. Names and notes keep the numbering of the source.

T1: full length human TMPRSS6 with a C-terminal triple myc tag on HEK293.hHJV cells (HEK293.hHJV/3xMyc.hTMPRSS6) (human, UniProt Q8IU80 1-811)
T1 sequence: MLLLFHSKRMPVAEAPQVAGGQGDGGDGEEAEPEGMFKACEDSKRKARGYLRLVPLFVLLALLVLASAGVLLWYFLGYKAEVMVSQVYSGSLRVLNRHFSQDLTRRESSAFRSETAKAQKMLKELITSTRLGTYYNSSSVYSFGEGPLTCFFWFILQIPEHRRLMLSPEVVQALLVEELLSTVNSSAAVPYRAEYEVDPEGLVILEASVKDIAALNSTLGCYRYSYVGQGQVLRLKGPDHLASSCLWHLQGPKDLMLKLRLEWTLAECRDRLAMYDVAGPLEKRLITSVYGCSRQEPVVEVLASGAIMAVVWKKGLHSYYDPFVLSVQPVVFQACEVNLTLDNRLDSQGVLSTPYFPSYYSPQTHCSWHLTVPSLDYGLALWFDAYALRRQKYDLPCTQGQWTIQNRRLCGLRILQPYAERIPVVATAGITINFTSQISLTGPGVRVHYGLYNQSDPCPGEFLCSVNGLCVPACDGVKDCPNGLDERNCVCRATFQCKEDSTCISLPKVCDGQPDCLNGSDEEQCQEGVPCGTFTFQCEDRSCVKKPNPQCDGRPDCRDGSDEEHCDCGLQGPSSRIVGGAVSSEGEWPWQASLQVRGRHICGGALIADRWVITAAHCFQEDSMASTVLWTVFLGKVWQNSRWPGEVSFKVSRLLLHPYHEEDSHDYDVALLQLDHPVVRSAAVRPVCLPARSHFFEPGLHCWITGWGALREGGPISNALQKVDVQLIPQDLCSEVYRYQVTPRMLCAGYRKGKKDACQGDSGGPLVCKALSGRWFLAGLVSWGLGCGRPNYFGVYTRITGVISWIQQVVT

T2: full-length mouse TMPRSS6 with a C-terminal triple myc tag on HEK293.hHJV cells (HEK293.hHJV/3xMyc.mTMPRSS6) (mouse, UniProt Q9DBI0 1-811)
T2 sequence: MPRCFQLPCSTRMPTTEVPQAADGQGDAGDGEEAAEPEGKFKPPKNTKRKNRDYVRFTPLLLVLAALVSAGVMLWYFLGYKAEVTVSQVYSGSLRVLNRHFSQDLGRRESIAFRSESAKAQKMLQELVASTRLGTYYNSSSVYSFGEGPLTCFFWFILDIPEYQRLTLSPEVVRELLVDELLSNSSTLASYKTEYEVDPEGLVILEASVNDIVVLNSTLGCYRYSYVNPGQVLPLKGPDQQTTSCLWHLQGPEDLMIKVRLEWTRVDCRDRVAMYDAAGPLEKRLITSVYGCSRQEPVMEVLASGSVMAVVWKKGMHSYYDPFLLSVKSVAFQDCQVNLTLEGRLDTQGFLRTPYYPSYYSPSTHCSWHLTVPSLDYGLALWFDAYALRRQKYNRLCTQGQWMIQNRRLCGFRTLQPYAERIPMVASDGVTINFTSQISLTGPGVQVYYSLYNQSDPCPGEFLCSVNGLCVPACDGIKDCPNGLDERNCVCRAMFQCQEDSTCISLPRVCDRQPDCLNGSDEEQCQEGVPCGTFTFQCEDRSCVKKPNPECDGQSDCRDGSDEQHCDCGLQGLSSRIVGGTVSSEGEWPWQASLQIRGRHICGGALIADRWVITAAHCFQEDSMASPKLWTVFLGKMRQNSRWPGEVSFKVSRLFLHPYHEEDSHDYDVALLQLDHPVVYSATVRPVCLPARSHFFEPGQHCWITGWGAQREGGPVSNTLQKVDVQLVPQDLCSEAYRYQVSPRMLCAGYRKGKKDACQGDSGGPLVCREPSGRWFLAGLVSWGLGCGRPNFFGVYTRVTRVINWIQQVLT

B1: REGN7999 (antibody, human IgG4 S228P, kappa, V domains shown)
VH: EVQLVESGGGLVQPGGSLRLSCAASGFTFSSYAMTWVRQAPGKGLEWVSAISGSDTSTYYADSVKGRFTISRDNSKNTLFLQMNSLRAEDTAVYYCAKHQDYDFSYYYSAMDVWGQGTTVTVSS
VL: DIQMTQSPSSLSASVGDRVIITCRASQDFNSWLAWYQQKPGKAPKLLIYAASSLQSGVPSRFSGSGSGTDFTLTISSLQPEDFATYYCQQTDSFPFTFGPGTKVDIKR
notes: fully human; human IgG4 Fc with hinge S108P; also called mAb41450
B2: REGN7974 (antibody, human IgG4 S228P, kappa, V domains shown)
VH: EVQLVESGGGLVQPGRSLRLSCIASGFNFGDYGMSWVRQAPGKGLEWVGFIRSKAYGGTTEYAASVKGRFTISRDDSKSIAYLQMNSLKTEDAAMYYCSRDYYDILTGYYGDYWGQGTLVTVSS
VL: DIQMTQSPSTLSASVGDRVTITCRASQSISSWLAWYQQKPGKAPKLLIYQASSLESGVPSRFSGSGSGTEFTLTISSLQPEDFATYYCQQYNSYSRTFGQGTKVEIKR
notes: fully human; human IgG4 Fc with hinge S108P; also called mAb41422
B3: REGN7969 (antibody, human IgG4 S228P, kappa, V domains shown)
VH: QVQLVESGGGVVQPGRSLRLSCAASGFTFNNYGMHWVRQAPGKGLEWVAIISYDGSNEYYSDSVKGRFTISRDNSKNTLYLQMNSLRAEDTAVYYCARDQDYGGNLFHYWGQGTLVTVSS
VL: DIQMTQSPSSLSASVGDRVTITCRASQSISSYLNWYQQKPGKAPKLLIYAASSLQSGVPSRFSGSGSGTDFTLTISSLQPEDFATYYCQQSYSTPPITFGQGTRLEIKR
notes: fully human; human IgG4 Fc with hinge S108P; also called mAb37746
B4: REGN7971 (antibody, human IgG4 S228P, kappa, V domains shown)
VH: B3 VH with N30S, N31T, E58D, S61L, S85N, R98K, D101G, H108A, Y109S
VL: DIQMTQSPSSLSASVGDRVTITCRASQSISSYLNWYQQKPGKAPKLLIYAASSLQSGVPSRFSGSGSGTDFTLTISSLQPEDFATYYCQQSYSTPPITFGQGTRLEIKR
notes: fully human; human IgG4 Fc with hinge S108P; also called mAb37763
B5: REGN7977 (antibody, V domains shown)
VH: EVQLVESGGGLVKPGGSLRVSCAASGVTFSNVWMSWVRQVPGKGLEWVGRIKSKTDGGTTDYAAPVKGRFTISKDDSKNTLFLQMNSLKTEDTAVYYCTTETGDFWSGYYPRFQHWGQGTLVTVSS
VL: DIQMTQSPSSLSASVGDRVTITCRASQYISTYLNWYQQKPGKAPSLLIYAASSLQSGVPSRFSGSGSGTDFTLTISSLQPEDFASYSCQQSYSTPPYTFGQGTKLEIKR
notes: fully human; human IgG4 Fc with hinge S108P; also called mAb41465
B6: REGN8023 (antibody, human IgG4 S228P, kappa, V domains shown)
VH: EVQLVESGGGLVKPGGSLRISCAASGFIFVDYAMHWVRQAPGKGLEWVSGISWNSGSIGYADSVKGRFTISRDNAKKSLYLQMSGLRPEDTALYYCVKSGFYYVRSYFDNWGQGTLVTVSS
VL: DIVMTQSPLSLPVTPGEPASISCRSSQSLLDSDDGNTYLDWYLRKPGQSPQLLIYTLSYRASGVPDRFSGSGSGTDFTLKISRVEADDVGVYYCMQRIEFPLTFGGGTKVEIKR
notes: fully human; human IgG4 Fc with hinge S108P; also called mAb37699

These binders were tested against T1, full length human TMPRSS6 with a … (assay: cell-based or functional assay).

Row | Binder | Geometric Mean Fluorescence Intensity of cell surface hHJV, 50 nM mAb | Median Fluorescence Intensity of cell surface hHJV, 50 nM mAb
1 | B1 | 30700 | 40100
2 | B2 | 40900 | 56700
3 | B3 | 47900 | 67500
4 | B4 | 61800 | 84400
5 | B5 | 49000 | 63800
6 | B6 | 55500 | 77800

These binders were tested against T2, full-length mouse TMPRSS6 with a … (assay: cell-based or functional assay).

Row | Binder | Geometric Mean Fluorescence Intensity of cell surface hHJV, 50 nM mAb | Median Fluorescence Intensity of cell surface hHJV, 50 nM mAb
7 | B1 | 23700 | 33600
8 | B2 | 6960 | 6220
9 | B3 | 8390 | 7810
10 | B4 | 8230 | 7470
11 | B5 | 9130 | 7030
12 | B6 | 19000 | 19400
